Measurements as given in publication PMC2115308.
Where “and” joins values, the source holds several entries; their conditions need not be identical. Equal entries are not always repeated. Where two headings read alike, the source gives them in different places. No end group written: not given here. *: point of attachment. 125I = [125I]*

How the values were obtained:
[1] = molecular target: Arg-Gly-Asp-directed receptors on LiBr melanoma cells (human (endogenous in LiBr)); assay: radioligand binding
[2] = molecular target: Arg-Gly-Asp-directed receptors on LiBr melanoma cells (human (endogenous in LiBr)); assay: radioligand binding; remark: listed apart in the source

specific cpm [1]: 2660 cpm
specific cpm [2]: 637 cpm and 494 cpm
Binder: KY(125I)GRGDSP [iodinated synthetic peptide KYGRGDSP]
